From the Immune Epitope Database (IEDB)

What was measured:
HLA-A*30:02 = assay: IEDB peptide-MHC binding, purified MHC/competitive/radioactivity; filed as Kd, often an IC50 or EC50 that approximates it; ≥ and ≤ were set here for values at or beyond the usual limits of such assays
HLA-A*02:01 [1] = assay: IEDB peptide-MHC binding, purified MHC/competitive/fluorescence; filed as Kd, often an IC50 or EC50 that approximates it; ≥ and ≤ were set here for values at or beyond the usual limits of such assays
HLA-A*02:01 [2] = assay: IEDB peptide-MHC binding, purified MHC/competitive/fluorescence; ≥ and ≤ were set here for values at or beyond the usual limits of such assays
HLA-A*01:01 = assay: IEDB peptide-MHC binding, purified MHC/competitive/radioactivity; filed as Kd, often an IC50 or EC50 that approximates it; ≥ and ≤ were set here for values at or beyond the usual limits of such assays
HLA-A*23:01 = assay: as above
HLA-A*24:02 = assay: as above
HLA-A*26:01 = assay: as above
HLA-A*29:02 = assay: as above
HLA-A*02:01 [3] = assay: IEDB peptide-MHC binding, purified MHC/direct/fluorescence; filed as Kd, often an IC50 or EC50 that approximates it; ≥ and ≤ were set here for values at or beyond the usual limits of such assays
HLA-A*69:01 = assay: as above
HLA-A*02:02 = assay: IEDB peptide-MHC binding, purified MHC/competitive/radioactivity; filed as Kd, often an IC50 or EC50 that approximates it; ≥ and ≤ were set here for values at or beyond the usual limits of such assays
HLA-A*02:03 = assay: as above
HLA-A*02:06 = assay: as above
[4] = source organism: Zaire ebolavirus
[5] = source organism: SARS coronavirus Tor2
[6] = source organism: Vaccinia virus WR
[7] = source organism: Mammarenavirus whitewaterense
[8] = source organism: Dengue virus 4 Philippines/H241/1956
[9] = source organism: Dengue virus 4 Dominica/814669/1981
[10] = source organism: Mammarenavirus guanaritoense
[11] = source organism: Sudan ebolavirus
[12] = source organism: Mammarenavirus choriomeningitidis
[13] = source organism: Vaccinia virus Copenhagen
[14] = source organism: Dengue virus 2 Jamaica/1409/1983
[15] = source organism: Mammarenavirus brazilense
[16] = source organism: Vibrio vulnificus YJ016
[17] = source organism: Mammarenavirus juninense
[18] = source organism: Dengue virus 3 Martinique/1243/1999
[19] = source organism: Dengue virus 3 Sri Lanka/1266/2000
[20] = source organism: Aromatoleum aromaticum
[21] = source organism: Dengue virus 1 Brazil/97-11/1997
[22] = source organism: Mammarenavirus tacaribeense

With KLTLKGMSY the Kd (HLA-A*30:02; source organism: Dengue virus 1 Singapore/S275/1990) was 521 nM.
KVDTTHVSKV showed a Kd (HLA-A*02:01 [1]; source organism: Myxoma virus) of 42.3 nM.
With LEELLPAVS the IC50 (HLA-A*02:01 [2]; [4]) was no less than 141000 nM.
LFADINGKL was tested, and the Kd (HLA-A*01:01; [5]) was no less than 78100 nM, the Kd (HLA-A*23:01; [5]) was 1300 nM and the Kd (HLA-A*24:02; [5]) was 722 nM. For the same sequence, the Kd (HLA-A*26:01; [5]) was no less than 41700 nM, the Kd (HLA-A*29:02; [5]) was 470 nM and the Kd (HLA-A*30:02; [5]) was 4340 nM.
LIGIEILNT gave an IC50 (HLA-A*02:01 [2]; [6]) of no less than 147000 nM.
LQFIVFLLL showed a Kd (HLA-A*23:01; [7]) of 11300 nM, a Kd (HLA-A*24:02; [7]) of no less than 77500 nM and a Kd (HLA-A*29:02; [7]) of 4670 nM.
LRIPTHRHI gave a Kd (HLA-A*01:01; [7]) of no less than 25700 nM, a Kd (HLA-A*23:01; [7]) of no less than 71500 nM and a Kd (HLA-A*24:02; [7]) of no less than 77500 nM. For the same sequence, the Kd (HLA-A*26:01; [7]) was no less than 77900 nM, the Kd (HLA-A*29:02; [7]) was no less than 33700 nM and the Kd (HLA-A*30:02; [7]) was no less than 76900 nM.
In the case of LSSTRVPNY, the Kd (HLA-A*01:01; [8]) is reported as 2040 nM and the Kd (HLA-A*30:02; [8]) is reported as 194 nM.
With LVAEMDGIQY the Kd (HLA-A*01:01; [5]) was 246 nM, the Kd (HLA-A*23:01; [5]) was no less than 70000 nM and the Kd (HLA-A*24:02; [5]) was no less than 70300 nM. It also gave a Kd (HLA-A*26:01; [5]) of 346 nM, a Kd (HLA-A*29:02; [5]) of 103 nM and a Kd (HLA-A*30:02; [5]) of 102 nM.
With MFGGVSWMI the Kd (HLA-A*23:01; [9]) was 41.8 nM and the Kd (HLA-A*24:02; [9]) was 78.3 nM.
With MYEMHRESLL the Kd (HLA-A*23:01; [10]) was 870 nM, the Kd (HLA-A*24:02; [10]) was 3170 nM and the Kd (HLA-A*29:02; [10]) was 9880 nM.
NFLEVEDYGF was tested, and the Kd (HLA-A*23:01; [8]) was 54.7 nM and the Kd (HLA-A*24:02; [8]) was no less than 31700 nM.
NLEGSGVST showed an IC50 (HLA-A*02:01 [2]; [11]) of 67600 nM.
NNNTHHQDT showed an IC50 (HLA-A*02:01 [2]; [4]) of no less than 253000 nM.
Sequence PDLKTIHNIL has a Kd (HLA-A*01:01; [12]) of no less than 70400 nM, a Kd (HLA-A*26:01; [12]) of no less than 69700 nM and a Kd (HLA-A*30:02; [12]) of 10300 nM.
QIGDIIIAV gave an IC50 (HLA-A*02:01 [2]; source organism: Variola virus) of 293 nM.
With QLLEAVYGN the IC50 (HLA-A*02:01 [2]; [13]) was 21600 nM.
QVFLKMRRIF showed a Kd (HLA-A*23:01; [7]) of 401 nM, a Kd (HLA-A*24:02; [7]) of 12300 nM and a Kd (HLA-A*29:02; [7]) of 9080 nM.
Work on RGSGQVGTY yielded a Kd (HLA-A*30:02; [14]) of 208 nM.
Work on RILGPDCCI yielded an IC50 (HLA-A*02:01 [2]; [11]) of 64000 nM.
RLKGVTCRLF showed a Kd (HLA-A*23:01; [15]) of 98.3 nM, a Kd (HLA-A*24:02; [15]) of 719 nM and a Kd (HLA-A*29:02; [15]) of 395 nM.
RQLQREGLV gave a Kd (HLA-A*02:01 [3]; [16]) of no less than 5000 nM and a Kd (HLA-A*69:01; [16]) of no less than 20000 nM.
With RQMATTTNPL the Kd (HLA-A*02:01 [1]; source organism: Influenza A virus (A/parakeet/Chiba/1/97(H9N2))) was 393 nM.
RTLLGLILFV was tested, and the Kd (HLA-A*02:01 [1]; source organism: Variola virus) was 1270 nM.
Sequence RWTQSLRRGL has a Kd (HLA-A*23:01; [17]) of 5300 nM, a Kd (HLA-A*24:02; [17]) of no less than 70300 nM and a Kd (HLA-A*29:02; [17]) of 1280 nM.
Work on SEELSFTVV yielded an IC50 (HLA-A*02:01 [2]; [4]) of no less than 145000 nM.
SFYSDPKRFF gave a Kd (HLA-A*23:01; [10]) of 226 nM, a Kd (HLA-A*24:02; [10]) of 740 nM and a Kd (HLA-A*29:02; [10]) of 124 nM.
With SISKSNAKC the IC50 (HLA-A*02:01 [2]; [13]) was 35800 nM.
Sequence SKIPGGAMY has a Kd (HLA-A*30:02; [18]) of 365 nM.
SMWALVISV showed a Kd (HLA-A*02:02; [5]) of 6.12 nM, a Kd (HLA-A*02:03; [5]) of 4.43 nM and a Kd (HLA-A*02:06; [5]) of 0.793 nM.
SMYTRLRQDT showed a Kd (HLA-A*02:02; [6]) of 6560 nM, a Kd (HLA-A*02:03; [6]) of 1140 nM and a Kd (HLA-A*02:06; [6]) of no less than 42200 nM.
With SVMATEEPT the IC50 (HLA-A*02:01 [2]; [11]) was no less than 115000 nM.
SYLAGAGLL gave a Kd (HLA-A*24:02; [14]) of 19.4 nM.
TAIRAGYSIV showed a Kd (HLA-A*02:02; [6]) of 6820 nM, a Kd (HLA-A*02:03; [6]) of 71.8 nM and a Kd (HLA-A*02:06; [6]) of 8590 nM.
For TIGEWAFWE, the IC50 (HLA-A*02:01 [2]; [4]) was no less than 245000 nM.
With TIVSRSSRGV the Kd (HLA-A*02:02; [6]) was 4700 nM, the Kd (HLA-A*02:03; [6]) was 11.1 nM and the Kd (HLA-A*02:06; [6]) was 3740 nM.
TLNTLITLI showed a Kd (HLA-A*02:02; [6]) of 0.989 nM, a Kd (HLA-A*02:03; [6]) of 0.596 nM and a Kd (HLA-A*02:06; [6]) of 941 nM.
With TSETFSMGLL the Kd (HLA-A*01:01; [8]) was 242 nM.
TSQVPKLLL showed an IC50 (HLA-A*02:01 [2]; source organism: Variola virus) of 47400 nM.
TVDFTDCRTI showed a Kd (HLA-A*02:02; [6]) of no less than 31800 nM, a Kd (HLA-A*02:03; [6]) of 10400 nM and a Kd (HLA-A*02:06; [6]) of 10600 nM.
Work on TVIKTLLEV yielded a Kd (HLA-A*02:02; [7]) of 2010 nM, a Kd (HLA-A*02:03; [7]) of 52.6 nM and a Kd (HLA-A*02:06; [7]) of 16.6 nM.
TWRDMAHTLI gave a Kd (HLA-A*24:02; [18]) of 387 nM.
With TYQLWTALV the Kd (HLA-A*23:01; [19]) was 58.3 nM and the Kd (HLA-A*24:02; [19]) was 48.3 nM.
VAMLLTHGA showed a Kd (HLA-A*02:02; [6]) of 7160 nM, a Kd (HLA-A*02:03; [6]) of 628 nM and a Kd (HLA-A*02:06; [6]) of 726 nM.
VLEGFEGDL showed a Kd (HLA-A*02:01 [3]; [20]) of 17000 nM and a Kd (HLA-A*69:01; [20]) of no less than 20000 nM.
In the case of VQEFIFSAL, the Kd (HLA-A*02:02; [6]) is reported as 419 nM, the Kd (HLA-A*02:03; [6]) is reported as 466 nM and the Kd (HLA-A*02:06; [6]) is reported as 198 nM.
In the case of VSLTCSNTIF, the Kd (HLA-A*01:01; [19]) is reported as 7760 nM.
Sequence VSQHNYRPGY has a Kd (HLA-A*01:01; [14]) of 6790 nM and a Kd (HLA-A*30:02; [14]) of 385 nM.
For VVHGYFTEV, the Kd (HLA-A*02:02; [5]) was 17.2 nM, the Kd (HLA-A*02:03; [5]) was 3.27 nM and the Kd (HLA-A*02:06; [5]) was 2.63 nM.
VVYHDDDNTT gave a Kd (HLA-A*02:02; [6]) of 1860 nM, a Kd (HLA-A*02:03; [6]) of 12600 nM and a Kd (HLA-A*02:06; [6]) of 3920 nM.
With WHLGKLELDF the Kd (HLA-A*23:01; [21]) was 296 nM.
With WTEAKMLLD the Kd (HLA-A*01:01; [21]) was 943 nM.
In the case of YKTWAYHGSY, the Kd (HLA-A*30:02; [14]) is reported as 4220 nM.
With YMVTDKTAYI the Kd (HLA-A*02:02; [6]) was 0.225 nM, the Kd (HLA-A*02:03; [6]) was 0.277 nM and the Kd (HLA-A*02:06; [6]) was 6.12 nM.
YNCKCCWFA gave a Kd (HLA-A*02:02; [22]) of 16000 nM, a Kd (HLA-A*02:03; [22]) of no less than 31800 nM and a Kd (HLA-A*02:06; [22]) of no less than 77000 nM.
Work on YTYPDSLEE yielded an IC50 (HLA-A*02:01 [2]; [4]) of no less than 264000 nM.
